Test results taken from patent US20160145334A1 (AbbVie / Abbott, published 2016).

T1: rat NgR, full length, on cells (rat, UniProt Q99M75 27-447)
T1 construct: whole, on cells; also called CHO K1 Rat NGR; rat NgR expressed on HEK293f cells
T1 sequence (looked up): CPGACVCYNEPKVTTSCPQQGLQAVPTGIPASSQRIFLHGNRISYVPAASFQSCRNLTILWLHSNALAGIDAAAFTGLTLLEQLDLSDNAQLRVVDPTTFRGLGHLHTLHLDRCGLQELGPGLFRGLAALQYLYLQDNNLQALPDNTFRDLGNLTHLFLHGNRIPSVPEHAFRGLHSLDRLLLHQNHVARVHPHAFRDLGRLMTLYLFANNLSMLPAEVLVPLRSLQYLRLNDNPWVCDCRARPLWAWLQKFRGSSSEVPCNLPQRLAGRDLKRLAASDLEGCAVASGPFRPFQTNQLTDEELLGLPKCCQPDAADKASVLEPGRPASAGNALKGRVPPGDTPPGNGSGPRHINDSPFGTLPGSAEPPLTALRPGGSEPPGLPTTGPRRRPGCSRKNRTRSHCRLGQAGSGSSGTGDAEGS

T2: human NgR, full length, on cells (human, UniProt Q9BZR6 27-447)
T2 construct: whole, on cells; also called HEK293 NGR; human NgR expressed on HEK293f cells
T2 sequence (looked up): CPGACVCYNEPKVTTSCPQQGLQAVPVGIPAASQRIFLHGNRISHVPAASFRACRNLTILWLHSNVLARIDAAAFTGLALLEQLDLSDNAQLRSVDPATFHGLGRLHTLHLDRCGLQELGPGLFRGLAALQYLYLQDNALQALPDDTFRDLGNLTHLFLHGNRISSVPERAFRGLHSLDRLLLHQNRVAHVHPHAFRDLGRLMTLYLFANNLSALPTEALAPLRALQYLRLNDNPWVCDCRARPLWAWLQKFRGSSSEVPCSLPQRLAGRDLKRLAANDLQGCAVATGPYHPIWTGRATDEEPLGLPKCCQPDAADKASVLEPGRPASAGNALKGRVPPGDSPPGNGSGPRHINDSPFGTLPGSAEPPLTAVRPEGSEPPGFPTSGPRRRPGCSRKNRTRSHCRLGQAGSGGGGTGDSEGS

T3: recombinant Rat MAG/Fc Chimera (R&D Systems, Catalog #538-MG) (rat, UniProt P07722 20-516)
T3 construct: Bought; labeled with horseradish peroxidase by the Zenon human IgG labeling kit in the assay; Fc part of the bought chimera not given; not described
T3 sequence (looked up): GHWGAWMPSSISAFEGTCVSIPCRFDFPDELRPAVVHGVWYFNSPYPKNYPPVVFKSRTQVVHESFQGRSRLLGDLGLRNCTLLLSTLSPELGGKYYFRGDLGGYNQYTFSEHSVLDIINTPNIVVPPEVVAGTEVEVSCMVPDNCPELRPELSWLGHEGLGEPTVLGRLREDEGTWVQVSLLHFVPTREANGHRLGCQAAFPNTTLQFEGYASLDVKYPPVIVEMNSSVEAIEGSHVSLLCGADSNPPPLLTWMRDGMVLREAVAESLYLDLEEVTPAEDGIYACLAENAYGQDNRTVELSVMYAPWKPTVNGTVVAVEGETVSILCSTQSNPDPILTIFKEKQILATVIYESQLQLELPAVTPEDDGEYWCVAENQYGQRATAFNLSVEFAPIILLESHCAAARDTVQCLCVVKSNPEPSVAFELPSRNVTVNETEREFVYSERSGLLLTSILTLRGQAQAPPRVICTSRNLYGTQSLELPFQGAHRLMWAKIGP


Assays:
[1] = target: T1, rat NgR, full length, on cells; experiment: FACS on HEK293f cells with rat NgR, AP-Nogo66 40 nM, Alexa Fluor-labelled anti-alkaline phosphatase antibody
Method: (§1) To further characterize the binding and competitive properties of mAbs produced as described in Example 1, a suspension of HEK293f cells transiently expressing human or rat NgR was used. 48 h after transfection the cells were plated in 96-well microtiter plates (Nunc Maxisorb) and washed with Phosphate buffered saline buffer (PBS containing 1% BSA). 1 μg/200 μl of AP-Nogo66 (final concentration 40 nM) and varying concentrations of monoclonal antibodies (20 μg, 4, 0.8 and 0.16 μg/200 μl) were added and incubated for 1 h at 4° C. A monoclonal antibody with the same isotype was used as a negative control. The binding of AP-Nogo66 was detected with an anti-alkaline Phosphatase antibody (Sigma), which was labeled with Alexa Fluor using the Zenon mouse IgG2a labeling kit (Invitrogen). The secondary antibody was incubated for 1 h at 4° C. At the end of the incubation, the cells were washed with PBS and subjected to FACS analysis. At the 20 μg/200 μl concentration (20 fold molar excess) polyclonal anti-NgR antibody and the NgR-Fc (both from R&D Systems) blocked the AP-Nogo66 binding between 60% and 70%, while mAb 50 and 51 blocked the AP-Nogo66 binding by approximately 90%. […] The AP-Nogo66 fluorescence is shifted to lower intensities (shaded; green area) in the presence of both antibodies in HEK293f cells expressing human and rat NgR.

[2] = target: T2, human NgR, full length, on cells; experiment: FACS on HEK293f cells with human NgR, AP-Nogo66 40 nM, Alexa Fluor-labelled anti-alkaline phosphatase antibody
Method: as §1

[3] = target: T3, recombinant Rat MAG/Fc Chimera (R&D …); experiment: competition ELISA, human NgR-Fc coated 0.2 µg/well, HRP-labelled MAG-Fc at 50 ng/ml, competitor unlabelled MAG-Fc
Method: To further characterize the monoclonal antibodies a competition assay similar to the binding assay of Example 2 was used to test the ability of two mAbs produced in Example 1 to inhibit MAG-Fc binding to human NgR-Fc. We immobilized NgR-Fc (0.2 μg/well, R&D Systems) on 96-well microtiter plates (Nunc Maxisorb) in 50 mM Na-carbonate buffer pH 9 over night at 4° C. followed by a 2 h blocking step with 2% BSA in Tris-HCL, pH 7.2 at room temperature. MAG-Fc (R&D Systems recombinant Rat MAG/Fc Chimera, Catalog #538-MG) was labeled with horseradish peroxidase by the Zenon human IgG labeling kit (Molecular Probes). The wells received a constant concentration of labeled MAG-Fc (final concentration 50 ng/ml in Tris-HCL, pH 7.2 with 0.1% BSA) and the indicated concentrations of mAb 50 and mAb 51. This was incubated for 60 min at room temperature and using unlabeled MAG-Fc and NgR-Fc as controls. During each incubation step plates were washed with washing buffer (10 mM Tris-HCl, pH 7.2 and 0.05% Tween 20). Labeled MAG-Fc was developed using 3,3′,5,5′-tetramethylbenzidine substrate (TMB, Pierce) under standard conditions. […] MAG-Fc and NgR-Fc competed for the binding of labeled MAG-Fc (closed circles) to human NgR-Fc (a fusion protein comprising amino acids Met 1 to Ser 447 of the human NgR and a human Fc fragment (R&D Systems); closed squares). […]

Row | binding result [1] | binding result [2] | binding result [3] | Binder
1 | binds | binds |  | AP-Nogo66 (ligand, Nogo66 cloned into pAPTag5, made in HEK293 cells; also called Nogo66 fused to an alkaline phosphatase tag) DAAQPARRARRTYEAYVRSSGIIPVEEENPDFWNREAAEALGAAKKLQPAQTAAKNLIIFLGDGMGVSTVTAARILKGQKKDKLGPEIPLAMDRFPYVALSKTYNVDKHVPDSGATATAYLCGVKGNFQTIGLSAAARFNQCNTTRGNEVISVMNRAKKAGKSVGVVTTTRVQHASPAGTYAHTVNRNWYSDADVPASARQEGCQDIATQLISNMDIDVILGGGRKYMFRMGTPDPEYPDDYSQGGTRLDGKNLVQEWLAKRQGARYVWNRTELMQASLDPSVTHLMGLFEPGDMKYEIHRDSTLDPSLMEMTEAALRLLSRNPRGFFLFVEGGRIDHGHHESRAYRALTETIMFDDAIERAGQLTSEEDTLSLVTADHSHVFSFGGYPLRGSSIFGLAPGKARDRKAYTVLLYGNGPGYVLKDGARPDVTESESGSPEYRQQSAVPLDEETHAGEDVAVFARGPQAHLVHGVQEQTFIAHVMAFAACLEPYTACDLAPPAGTTDAAHPGYLEEALSLERIYKGVIQAIQKSDEGHPFRAYLESEVAISEELVQKYSNSALGHVNCTIKELRRLFLVDDLVDSLKSLEGPEQKLISEEDLNSAVDHHHHHH
2 |  |  | binds | human recombinant NgR/Fc chimera (R&D Systems, Cat. Number 1208-NG) (Fc fusion, UniProt Q9BZR6 27-447, looked up, range 1-447; Bought from R&D Systems; also called hNgR-Fc; human NgR-Fc; not shown: human Fc fragment) CPGACVCYNEPKVTTSCPQQGLQAVPVGIPAASQRIFLHGNRISHVPAASFRACRNLTILWLHSNVLARIDAAAFTGLALLEQLDLSDNAQLRSVDPATFHGLGRLHTLHLDRCGLQELGPGLFRGLAALQYLYLQDNALQALPDDTFRDLGNLTHLFLHGNRISSVPERAFRGLHSLDRLLLHQNRVAHVHPHAFRDLGRLMTLYLFANNLSALPTEALAPLRALQYLRLNDNPWVCDCRARPLWAWLQKFRGSSSEVPCSLPQRLAGRDLKRLAANDLQGCAVATGPYHPIWTGRATDEEPLGLPKCCQPDAADKASVLEPGRPASAGNALKGRVPPGDSPPGNGSGPRHINDSPFGTLPGSAEPPLTAVRPEGSEPPGFPTSGPRRRPGCSRKNRTRSHCRLGQAGSGGGGTGDSEGS
